This series concerns the target NS3h (NS3 helicase domain) (Dengue virus serotype 2 (cDNA of …, UniProt O09234 1646-2093)). The experiment in a line: fluorescence intensity titration (ex 495 nm, em 525-570 nm), 1:1 single-site fit; 1.5 mM free Mg2+; no ATP stated; constant printed as 'K' in nM, subscript lost, read as Kd. Particulars: protein: recombinant; tags: N-terminal His6 (pET-28a); label: 5'-fluorescein.

For orientation: Kd means the equilibrium constant for the complex coming apart. Regarding AGUUGAGUUG (ssRNA) [fluorescein-labeled 10-nt ssRNA], the Kd was 0.75 ± 0.08 nM.

(Values after publication PMC3602377, “Steady-State NTPase Activity of Dengue Virus NS3: Number of Catalytic Sites, Nucleotide Specificity and Activation by ssRNA”.)
